Drawing on article PMC8939769 (2022), this text covers IC50 for one molecule.

The experiment deals with SARS-CoV-2 spike protein receptor binding domain (RBD) (SARS-CoV-2, UniProt P0DTC2 319-541). Nature of the experiment: ELISA.

B1: AZD8895 (tixagevimab) (antibody, V domains shown)
VH: QMQLVQSGPEVKKPGTSVKVSCKASGFTFMSSAVQWVRQARGQRLEWIGWIVIGSGNTNYAQKFQERVTITRDMSTSTAYMELSSLRSEDTAVYYCAAPYCSSISCNDGFDIWGQGTMVTVSS
VL: not shown
In turn, B1 gave an IC50 of 0.0477 µg/mL.
